Here are results for two proteins from patent publication US20210322511A1 (Harvard, published 2021).

Data set [1] deals with the molecule itself. Briefly: SEC, then non-reducing and reducing SDS-PAGE. For orientation: SEC sorts molecules by how far they enter the pores of the column.
Data set [2] concerns the molecule itself. Briefly: non-reducing SDS-PAGE, disulfide-linked homodimer.
Procedure: Fractions of the last SEC were analyzed by SDS-PAGE and Coomassie-blue staining. The position of SP-B is indicated by an arrow.
The extract was subjected to chromatography on a Sepharose LH-20 column to remove phospholipids. Protein fractions were dried, dissolved in the detergent octylglucoside, and further purified by size-exclusion chromatography (SEC).

B1: recombinant human SP-BM (other)
chain: PIPLPYCWLCRALIKRIQAMIPKGALAVAVAQVCRVVPLVAGGICQCLAERYSVILLDTLLGRMLPQLVCRLVLRCSM
modifications: inter-molecular disulfide bond in the dimer
notes: also called recombinant SP-BM
B1: the binding result in data set [1] is “binds”.

B2: SP-BM purified from bovine lungs (other, UniProt P15781 188-266, looked up)
chain: FPIPIPYCWLCRTLIKRIQAVIPKGVLAMTVAQVCHVVPLLVGGICQCLVERYSVILLDTLLGRMLPQLVCGLVLRCSS
modifications: monomers disulfide-linked through Cys48
notes: domain: SP-BM; also called bovine SP-BM; mature SP-B
For B2, the binding result in data set [2] is listed as “binds”.
